The target of test [1] is GST (glutathione S-transferase) (UniProt P08515 1-218 = GST). Kind of test: fluorescence polarization. For orientation: Polarisation of emitted light reports the rotation of a fluorescent probe.
Test [2] concerns the target T1, GST-tagged CgGal11Ap KIX domain (amino acids 1-86) (C. glabrata, UniProt P08515 1-218 = GST). Kind of test: fluorescence polarization, salt and pH adjusted.
Test [3] has as its target T1, GST-tagged CgGal11Ap KIX domain (amino …). Kind of test: fluorescence polarization, FITC peptide with increasing GST-CgGal11Ap KIX.
Test [4] shares this target. Description: fluorescence anisotropy/polarization, FITC peptide with increasing GST-CgGal11Ap KIX.

Ends that are not written are not given here. * marks the point of attachment. FITC = O=C1OC2(c3ccc(O)cc3Oc3cc(O)ccc32)c2ccc(NC(=S)*)cc21

T1 sequence (P08515 whole entry, the tested form may be a part): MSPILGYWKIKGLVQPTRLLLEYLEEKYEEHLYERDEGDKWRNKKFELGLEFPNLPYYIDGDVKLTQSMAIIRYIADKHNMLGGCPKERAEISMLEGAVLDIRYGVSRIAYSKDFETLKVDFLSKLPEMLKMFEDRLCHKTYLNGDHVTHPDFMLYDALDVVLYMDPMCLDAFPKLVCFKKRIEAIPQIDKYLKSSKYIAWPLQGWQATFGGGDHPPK
GST (glutathione S-transferase), sequence (P08515 whole entry, the tested form may be a part): as above

B1: FITC-CgPdr1pAD-30 (FITC-LGTLDEFVNKGDLNELYNSLWGDLFSDVYL) (peptide)
peptide: {FITC}-LGTLDEFVNKGDLNELYNSLWGDLFSDVYL
notes: also called FITC-labled-CgPdr1pAD-30; Fluorescein-tagged CgPdr1pAD-30 peptide
Usually Kd stands for the free concentration of one partner at which half of the binding sites on the other are occupied at equilibrium, for simple one-to-one binding. As to B1, the binding result in test [1] was “no binding”. Besides, the Kd in test [2] was roughly 700 nM; in test [3], roughly 780 nM; in test [4], roughly 2000 nM.

B2: Fluorescein-conjugated 15-amino acid CgPdr1pAD peptide (FITC-LYNSLWGDLFSDVYL) (peptide)
peptide: {FITC}-LYNSLWGDLFSDVYL
notes: also called short Fluorescein-tagged CgPdr1pAD peptide
In test [4], B2 came in with a Kd of roughly 210000 nM.
